According to publication PMC9519379 (Cell Reports Medicine, 2022):
pIC50: −log10 of the molar value.

Biological target: SARS-CoV-2 Spike Trimer (B.1.617.2/Delta) (SARS-CoV-2) (UniProt P0DTC2)
Test: single-molecule force spectroscopy

H84T-banana lectin (H84T-BanLec) (from UniProt Q8L5H4 1-141) (designed binder)
pIC50: 8.41
